Assay results published in the DeepSol protein solubility set.

Test: soluble on expression in E. coli; label from the status in PepcDB or PDB records

Sequence	soluble on expression in E. coli
MTSGAPPTISTEKSRSKQLRKSSKRTASTVEGTEAKQMRGDTENRSDGEMDDVSTSSEIRHGNGFIENFRSQTGNSSRTTATNERIKKKLVIKNFKANANQNDVAMGDTNIDSTDGSVGRDWAVLSDNVFAILEDRKTVTTLEGLFSKVRSVCDKNQSKVLYDRLVAIVVQFAKSLKESLNAVEQVPLAEDNCEQYLEKFGQIWQAYPVKINLIRNIFLHLDRIALGATDTEILPLWECFMQIFQKTFFPNIFKEFKATKLFNALYMAMQKIMQRYPVDSPLRSLVDMLQTVHVSEEFAKFLISQLREHYNNERIDKVPKMNCNDYMEYCEDQINRYSQLVKVNFDEPSALKDVQATVTNCLIQQAIPEILTHDFDDLIDSDNISDIGRMFNLCRQCVGGEDEVRTQFSKYLKKRGEKLIATCPDEDLVSELLAFKKKVDFIMTGSFKSANDPVKMRQCLSDAFESFVNKQVDRSAELISKHFHTLLHSSNKNVSDDTTLDQMVDEAIVLFRYLRGKDVFEAYYKRGLAKRLFLERSASVDAEKMVLCKLKTECGSAFTYKLEGMFKDMDASENYGRLFNQYLEHMNKEKANFTARVITPEYWPTYDTYEINIPKEMRDTLTDYQDFYRVQHGNRNVKWHHGLASAVISASFRPGCKKELIATMYQTVILLLFNKCETWTVAEIVEHTKILEIEVVKNVLALLGGRDKPKVLQRVEGGGSEKKEGTVENLKNEKFVVNSKFTEKRCRVRIAQVNIKTAVEETKEVKEEVNSDRQYKIDAAVVRIMKARKQLNHQTLMTELLQQLRFPVSTADIKKRLESLIEREYISRDPEEASSYNYVA	not soluble
MSDSDDNAYSDYLGNRRAALQKKRQPVRVCESDDSDDDFDTSGPSPMRKKTRETQLFPDDSDDDECVEVEKETYSQKVRHEIDDVEEAYRRSIYKRETVIHAPVEKNNVISGLLKICEGWDEAAKSGAQPEVEDVKDDSDADESSIAAENFPVTVVILDCESHGNDMKSRHDIFLESTFSEIRRIYATKWGCPVSCVVFSHNGKTIDTYTTPQSLGWRPMTLPHPLIEASKEAGEPAEVFTIENSPDSFTIKVLLASRRKPVQVEAAKDTTIQEILQKVIDAFVEDKEENIPSIESMKVVFDNERIKDVNITCEQLDLEDDDCIEVYF	not soluble
MSLRKGSMRITPLGGLGEIGRNMNVIEYNGHLLLIDCGVLFPEEEQPGVDLILPDFSYIKNRLDKVDALVLTHGHEDHIGGVPYLLKLRPDIPLIGSKLTLAFVDAKCKEHHQNPTKVEVAGREKLKVGPFDLEFVNVTHSIPDALAVYVKTPAGSLIDTGDIKLDQLPLDHRITDLVEFGKIGEKGVDLLMMDSTNAEVPGFVKPETSIGPALDQAFAQATRKIIVASFSSHVHRVQQVVDAAHKYGRKVVFVGRSMVRNMSIAADLGYLHIPEGTVVDLKQANDIQDDKLVFMCTGSQGEPMAALGRIADGNHRDIHINEFDTVILASSLIPGNEHGVYKVINKLVQLGAKVVNRDNAAVHVSGHCNEGELLYMYNIVKPKCAMPIHGENRHLVANGLIAVKTGVDPQNVVLAEDGDVVDLYHGRAAVVGSVPCGYVYVDGDSVGELTDDELEKRRILGTEGFVSAFVVVDTDNHEVVTGPKIYLNAVAEDESEFDKVRHQIVEQLNDQMMQGTRDTYKLQQTMRRTLGSWVARQLHRKPMIVPVVADIAQDVETVETKEGHHHHHH	soluble
MTQPSAPAPQIAIDSHDDKAWRDTLLKVAAILCERQPDSPQGYRLRRHALWQSITSTPQAESDGRTPLAAVSADMVADYQSRLASADMALWQQVEKSVLLAPYWLDGHCLSAQTALRLGYKQVADTIRDEVIRFLERLPQLTGLLFNDRTPFLSEQTKQWLAASPDGKVAPVAQIGEESQAARACFAGQGLEAALRYLDMLPEGDPRDQFHRQYLAAQLTEEAGLIQLAQQQYRMLLMIGSQMMVSDWEPSLLTQLEQKFTAEQ	soluble
MKKAAVSGRLYEVFDVFADKALAGNPLAIVHDCEGLTDACMQAIAREFNLSETVFIHAPANPAHEASVRIFTPAYELPFAGHPTVGAAVSLARRQKTGDETDRLVTLEEKVGIVRCGVILGENSAFAEFDLPRLPEQVDVKIEREEAAAAIGLGTHEIGFENHVPGVWSAGTPCLLVPVHNLIAAAKVSIDPVYVSESLPHVGGRPLPIYVYCRETILFNSHFHARMFVIGANVYEDPATGSAVAAFAGMIQQNDKPVDGSSQWWIEQGMEMGRPSRIRLELDVSKQKLVSARIGGTAVKIAEGRLFVLEHHHHHH	not soluble
MSTDKITFLLNWQPTPYHIPIFLAQTKGYFKEQGLDMAILEPTNPSDVTELIGSGKVDMGLKAMIHTLAAKARGFPVTSVASLLDEPFTGVLYLKGSGITEDFQSLKGKKIGYVGEFGKIQIDELTKHYGMKPEDYTAVRCGMNVAKYIIEGKIDAGIGIECMQQVELEEYLAKQGRPASDAKMLRIDKLACLGCCCFCTVLYICNDEFLKKNPEKVRKFLKAIKKATDYVLADPVKAWKEYIDFKPQLNNDLSYKQYQRCYAYFSSSLYNVHRDWKKVTGYGKRLAILPPDYVSNYTNEYLSWPEPEEVSDPLEAQRLMAIHQEKCRQEGTFKRLALPA	soluble
MGHHHHHHSHMIRINEIKLPLDHEEGALLDAITKKLGIPAEKVISFNVFRRGYDARKKTNIHLIYTLDIIVEGDETALLAKFANDPHVRQTPDMEYKFVAKAPENLTERPIVIGFGPCGLFAGLVLAQMGFNPIIVERGKEVRERTKDTFGFWRKRTLNPESNVQFGEGGAGTFSDGKLYSQVKDPNFYGRKVITEFVEAGAPEEILYVSKPHIGTFKLVTMIEKMRATIIELGGEIRFSTRVDGLHMEDGQITGVTLSNGEEIKSRHVVLAVGHSARDTFEMLHERGVYMEAKPFSVGFRIEHKQSMIDEARFGPNAGHPILGAADYKLVHHCKNGRTVYSFCMCPGGTVVAATSEEGRVVTNGMSQYSRAERNANSAIVVGISPEVDYPGDPLAGIRFQRELESNAYKLGGENYDAPAQKIGDFLKGRDPSQLGDVEPSFTPGIKLTDLSKALPPFAVEAIREAIPAFDRKIKGFASEDGLLTGVETRTSSPVCIKRGKDFQSVNLKGFYPAGEGAGYAGGILSAGIDGIKVAEAVARDIVAAMENA	soluble
MDFYYPNLNNDMWRIVGLLFFGDKDHFLNDTRKAFCREQIIDFLNEKGIALFDTASSIRRLQDNASDKFLEVVQPTDIAALLRQLPECRAIVTTGQKATDTLRAQLEVEEPKVGDYAEFVFEGRAMRLYRMPSSSRAYPLALDKKAAAYRIMYQDLQMVILEHHHHHH	soluble
VDSVFIVGHRKLDMDALGASVGMQFFASNIVNASYVVYDPNDMNSDIERAIDYLQEDGETRLVSVERAFELITQNSLLVMVDHSKTALTLSKEFFNKFADVIVVDHHRRDEDFPKNAVLSFIESGASSASELVTELIQFQQAKDKLSRSQASILMAGIMLDTRNFASNVTSRTFDVASYLRGLGSNSMAIQKISATDF	not soluble
MVTKFLIFVSENQQLTSKFNLVTRQNADLKIGLRGVLFSIQGLREELSVAKQRIEEMKEDSFFESMPKLEREAPAFMDSPAETSSPDVEMEDVVYEEVVKETEVANF	not soluble
MIANHVSLLIMGIDENQERQKEYNGAFHTDALLLATFNKDDKTVKLTSIPRDTYTYVPVEKKTDNITHAYGSGIVNNGKDGGPQASVEAVEQLLQVPVDYFVKFNFGSFTKIVDGLDGIEVDVPVEFTEQNSKDEPDAIHLKKGLQKLNGEEALALARTRHIDSDAMRGQRQQLVIESILSKLKSVGSITKLEKIVEAVDDDFKTNLVMDDILSFYKYGLNGSVEKIQLAGDDLYLPNGPNGQRVYYYNPNKKDLQSLSNTLRTHLGLSEKQIEENLEHHHHHH	soluble
MLTVGILGGGQLGWMTILEGRKLGFKFHVLEDKENAPACRVADRCFRTGQISEFVDSCDIITYEFEHIKDEVLEKCESKLIPNPQALYVKKSRIREKLFLKKHGFPVPEFLVIKRDEIIDALKSFKLPVVIKAEKLGYDGKGQYRIKKLEDANQVVKNHDKEESFIIEEFVKFEAEISCIGVRDREGKTYFYPQPFNKHEEGILIYNYVPYAKLKEAEEITKRLMELLDIVGVFTVEFFLLKDGRVLINEFAPRVHNTGHWTLDGAYTSQFENLLRAITEMPLGSTELKLPSGMVNILGKSYEEIPLKEILSVEGAKLYWYGKEKKPRRKVGHVNVVGRSKEEVVEKVERVFTLLKGSREKLPAP	soluble
GSEDLKKLEEEFDVRLGVYAIDTGADKEISYRENERFAYTSTFKPLAVGAVLQTKSDEELEETITYSEEDLVTYSPITEQHVDEGMTLVEIADAAIRYSDNTAGNLLLEAMGGPDELETILRDIGDETIEMDRYETELNEAKPGDIRDTSTAKAMATTLQQYVLEDVLDADRREVLTNMLINNTTGDALIRAGVPDGWTVGDKTGAGGYGTRNDIGIIWPEGDEEPIVIAIMSSRDEEDADYDDKLIEKATEIVLQELRN	soluble
MSLTIDRIRALVSEDFNAVNNLIIDKIQSQVGLIQDLSQHIVESGGKRLRPLVVLLASNACGYKGKDHISLAAMVEFFHTATLLHDDVIDESTLRRGRQTANSIWGSKASVLVGDYLFTQSVNLMVEVGIKEILNLLANTSHQITCGEVKQLANRHNPALTLDDYFDVIRAKTALLFAAAACIGPILTNAPIELRNSLYNYGLHLGNAFQLIDDALDYCSDAATLGKNIGDDLADGKATLPLIHALQNGNATQQQQIRESLMKGSLSHLPDILIAIEQTEAIPFTKRIAAQEVDSALSALEILPDSVYKEALVDLAKFALERNYEGHHHHHH	soluble
MGSDKIHHHHHHMTVDSPILTDTLVVGGGQAGIAMSEHLTGQGVPHIVLERDRIAQRWRTGRWDSLVANGPAWHDRFPGLEFEGLDPDGFASKDAVADYLEAYARKFNAPIRTGVEVVRAERNGGRYGFTVETSAGTYEAQRIVVATGPFQRPVIPAIAPRDPALTQIHSADYRNPGQLPEGAVLVIGAGSSGVQIADELQRAGREVYLSVGPHDRPPRRYRGRDFCWWLGVLGLWDQETVQPGREHVTIAVSGTDGGRTIEFRALAHQGITLVGVTKSFRDGVVAFENDLAENVARGDANHFALLDAADAYIARNGLSLPDEPQARRVPPDPACMTEPILQLDLAAANVTSIIWATGYAAEYGWLNVDAFDANGKPRHQRGVSSEPGVYFLGLPWLSRRGSAFLWGVWHDAKHIAGHIAMQRNYLSYPDFGQSQQ	not soluble
MKVDRPSRSPFPQRIPQKFWKKINDENWIDVFDCKKIKERKQEFFWYKLDPLDLAKAVAMASQMNDRGVIPYPTPTLNDALNDHAALIRALNDSSIKKLFKEVRFFCTMRKRFSTIRNNPISVKREPTNF	soluble
MAEGKAGGAAGLFAKQVQKKFSRAQEKVLQKLGKAVETKDERFEQSANNFYQQQAEGHKLYKDLKNFLSAVKVMHESSKRVSETLQEIYSSEWDGHEELKAIVWNNDLLWEDYEEKLADQAVRTMEIYVAQFSEIKERIAKRGRKLVDYDSARHHLEAVQNAKKKDEAKTAKAEEEFNKAQTVFEDLNQELLEELPILYNSRIGCYVTIFQNISNLRDVFYREMSKLNHNLYEVMSKLEKQHSNKVFVVKGLSSSSRRSLVISPPVRTATVSSPLTSPTSPSTLSLKSESESVSATEDLAPDAAQGEDNSEIKELLEEEEIEKEGSEASSSEEDEPLPACNGPAQAQPSPTTERAKSQEEVLPSSTTPSPGGALSPSGQPSSSATEVVLRTRTASEGSEQPKKRASIQRTSAPPSRPPPPRATASPRPSSGNIPSSPTASGGGSPTSPRASLGTGTASPRTSLEVSPNPEPPEKPVRTPEAKENENIHNQNPEELCTSPTLMTSQVASEPGEAKKMEDKEKDNKLISADSSEGQDQLQVSMVPENNNLTAPEPQEEVSTSENPQL	soluble
MSLADPNESTFARIRRTKKMRIGAVGGGAPYYMKDLASGQWKGFYVDIAKALADDMEAELEITETTWGNSVLDLQSNKIDIFFGLNPTPKRALVVDFSVPVFNNAFGILCKKDFKPKTWAELNSPDVKIAVDQGSSHDQVVSRLIPKAQISRLKTADDATAALQTGRVDAQCLITMLSLTVLKKNPSLGQFVLPTPIFATTSNAGFRRETDKTWRDYVNTWIDFNKGLGFIRNAIITNMELVGVTEADIPPGVSLEGHHHHHH	soluble
